Consider five molecules from patent publication US20110311517A1 (SHENOGEN PHARMA GROUP, published 2011).

The target in assay [1] is T1, recombinant human ERα36 (hER-α36, SEQ ID NO:1) expressed in HEK293 cells (human, UniProt P03372 174-457).
T1 construct: Present in lysates of ERα36-expressing HEK293 cells, separated by SDS-PAGE and blotted on PVDF (Western blot); also called recombinant ERα36
T1 sequence: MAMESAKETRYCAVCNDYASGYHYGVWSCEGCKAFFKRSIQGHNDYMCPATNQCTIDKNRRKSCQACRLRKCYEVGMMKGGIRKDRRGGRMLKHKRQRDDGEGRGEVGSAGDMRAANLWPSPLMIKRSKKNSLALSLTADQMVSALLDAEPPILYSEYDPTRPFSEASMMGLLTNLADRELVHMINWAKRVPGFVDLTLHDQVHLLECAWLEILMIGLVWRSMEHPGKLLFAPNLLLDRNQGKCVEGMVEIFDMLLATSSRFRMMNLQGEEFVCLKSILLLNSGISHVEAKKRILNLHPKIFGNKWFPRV
Nature of the assay: Western blot on lysates of ERα36-expressing HEK293 cells, anti-His-HRP. Here is the method:
ScFv1˜ScFv7 obtained after purification and renaturation were characterized using Western Blot. HEK293 cells were artificially constructed to express recombinant ERα36. Human breast cancer cells SK-BR-3 and ERα36-expressing HEK293 cells were cultured, harvested, and lysed by lysis buffer to obtain the cell lysates respectively. 20 μg/lane of the lysates were then loaded for SDS-PAGE. After electrophoresis, the protein samples were electronically transferred to PVDF membrane labeled with ScFv1˜ScFv7 respectively. The membranes were blocked with non-fat milk and anti-His-HRP was added to show the resulting images (FIG. 16).

For assay [2], the target named is T2, biotinylated ERα36 (chemically synthesised target peptide, SEQ ID NO:2) (human, labeled with biotin (site not stated)).
T2 construct: also called biotinylated ER36; biotinylated ERα36 peptides
T2 peptide: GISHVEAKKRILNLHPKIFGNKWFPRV
The assay is described as follows: ELISA on biotinylated ERα36 (streptavidin plate), ScFv 0.28 µg/ml, well 1. The protocol: (§1) Streptavidin-coated 96-well plates were washed twice with PBS. Biotinylated ERα36 (final concentration of 20 μg/ml) was added into each testing well. The plates were incubated for 2 h at room temperature and washed three times with PBST. Re-natured ScFv samples (100 μl, S14A1r1, S24A2r2, S33A2r1, S41A3r3, S53A1r1, S66A1r1 and S72A2r1) were added into the testing wells respectively. Each ScFv was diluted five times in five gradients, and two parallel wells were loaded with each ScFv at each gradient. The plates were incubated at 37° C. for 1 h. The plates were washed three times with PBST, followed by addition of 100 μl anti-His-6 mouse monoclonal antibody (1:2000 dilution) per well and 1 h incubation at 37° C. The plates were washed three times with PBST, followed by addition of 100 μl goat anti-mouse-HRP (1:2500 dilution) per well and 1 h incubation at 37° C. The plates were washed six times with PBST, followed by addition of 100 μl OPD to develop under the protection from light. The reactions were terminated by adding 50 μl 2M H₂SO₄ to each well, and data were collected by microplate reader at 490 nm.
(§2) One positive control and three negative controls were performed in parallel. The positive control used rabbit anti-ER multi-clonal antibody serum in replacement of the ScFv re-natured sample and goat-anti-rabbit-HRP in replacement of goat-anti-mouse HRP.

The target of assay [3] is T2, biotinylated ERα36 (chemically …). Nature of the assay: ELISA on biotinylated ERα36 (streptavidin plate), ScFv 0.28 µg/ml, well 2. The protocol: as §1, §2
Assay [4] has the same target. The assay is described as follows: phage ELISA, biotinylated ERα36 on neutravidin plate, well 1. The protocol:
(§3) Neutravidin-coated plates (purchased from Pierce) were washed with washing buffer (PBS containing 0.1% Tween-20) and all wells of the plates were blocked by incubating in blocking buffer at 4° C. for 1-2 h. Then the blocked plates were taken away from the blocking buffer, washed six times with washing buffer and dried upside-down. Biotinylated ERα36 in PBS (100 μl) was added to each testing well of the plates, incubated for 1-2 h at room temperature and removed. The plates were washed once with washing buffer. Phage solution (100 μl) was added per well and incubated for 1-2 h at room temperature. The plates were washed six times with the washing buffer. HRP-conjugated rabbit anti-M13 antibody (purchased from GE Healthcare) was diluted by 1:5,000 in blocking buffer. The diluted HRP-conjugated rabbit anti-M13 antibody (100 μl) was added to each well and incubated for 1 h at room temperature followed by washing six times with washing buffer.
(§4) HRP substrate solution (100 μl) was added to each testing well and incubated for 30 min at room temperature. The signals were detected using a microplate reader at 490 nm. […] The positive controls were plates coated with M13 phage and detected with HRP-conjugated anti-M13 antibodies.

The target is the same in assay [5]. Nature of the assay: phage ELISA, biotinylated ERα36 on neutravidin plate, well 2. Here is the method:
as §3, §4

For assay [6] the target is unchanged. The assay is described as follows: phage ELISA, biotinylated ERα36 on neutravidin plate, well 3. The protocol: as §3, §4

B1: human anti-ERα36 ScFv3 (purified, re-natured) (scFv)
scFv: QSVLTQPASVSGSPGQSITISCTGTSSDVGGYNYVSWYQQHPGKAPKLMIYDVSKRPSGVSNRFSGSKSGNTASLTISGLQAEDEADYYCSSYTSSSTLVFGGGTKLTVLGSGGSTITSYNVYYTKLSSSGTEVQLVQSGGGVAQPGRSLRLSCAASGITFNSYGMHWVRQAPGKGLEWVAVMPYDGSNEYYADSVKGRFTISRDNSKNTLYLQMNSLRAEDTAVYYCAKGSGMVQLWADAFDVWGQGTMVTVSSAS
notes: also called S33; S33A2r1
On to B1, for which the binding result in assay [1] is recorded as “binds”. The OD490 in assay [2] came to 0.159 OD490; in assay [3], 0.171 OD490.

B2: human anti-ERα36 ScFv6 (purified, re-natured) (scFv)
scFv: EIVMTQSPGTLSLSPGERATLSCRASQSVDSNFLAWYQQRPGQAPRLLIYGVSSSATGIPDRFSGSGSGTDFTLSIDRLEPEDFAVYYCQQYGSSPTFGGGTKLEIKRSGGSTITSYNVYYTKLSSSGTQVQLQESGGGLVQPGRSLRLSCAASGFTFDDYAMHWVRQAPGKGLEWVSGISWNSGSIGYADSVKGRFTISRDNAKNSLYLQMNSLRAEDTAVYYCARSGDYGAFDIWGQGTMVTVSSAS
notes: also called S66; S66A1r1
As to B2, the binding result in assay [1] was “binds”.

B3: human anti-ERα36 ScFv2 (purified, re-natured) (scFv)
scFv: QSALTQPASVSGSPGQSITISCTGTSSDVGGYNYVSWYQQHPGKAPKLMIYDVSKRPSGVSNRFSGSKSGNTASLTISGLQAEDEADYYCSSYTSSSTLVFGGGTKLTVLGSGGSTITSYNVYYTKLSSSGTQVQLLESGAEVKKPGASVKVSCKASGYTFTAYYMHWVRQAPGQGLEWMAMIDPSGSITSYAQKFQGRVTMSRDTSTSTLYMELSSLRSDDTAVYYCARDLKEGFSVPGAFDIWGQGTMVTVSSAS
notes: also called S24; S24A2r2
On to B3, for which, in assay [1], the binding result is “binds”. Further, the OD490 worked out at 0.093 OD490 in assay [2] and 0.09 OD490 in assay [3].

B4: human anti-ERα36 ScFv7 (purified, re-natured) (scFv)
scFv: QSVLTQPPSVSAAPGQKVTISCSGSSSNIGNNYVSWYQQLPGTAPKLLIYDNNKRPSGIPDRFSGSKSGTSATLGITGLQTGDEADYYCGTWDSSLSAGVFGGGTKLTVLGSGGSTITSYNVYYTKLSSSGTEVQLVQSGGGLVQPGRSLRLSCAASGFTFDDYAMHWVRQAPGKGLEWVSGISWNSGSIGYADSVKGRFTISRDNAKNSLYLQMNSLRAEDTALYYCAKEGDSSGWSPDYWGQGTLVTVSSAS
notes: also called S72; S72A2r1
With B4, in assay [1], the binding result was “binds”.

B5: phage-displayed ScFv7 (phage clone 12) (scFv)
scFv: QSVLTQPPSVSAAPGQKVTISCSGSSSNIGNNYVSWYQQLPGTAPKLLIYDNNKRPSGIPDRFSGSKSGTSATLGITGLQTGDEADYYCGTWDSSLSAGVFGGGTKLTVLGSGGSTITSYNVYYTKLSSSGTEVQLVQSGGGLVQPGRSLRLSCAASGFTFDDYAMHWVRQAPGKGLEWVSGISWNSGSIGYADSVKGRFTISRDNAKNSLYLQMNSLRAEDTALYYCAKEGDSSGWSPDYWGQGTLVTVSSAS
notes: The phage coat protein fusion partner is not described; also called phage single clone No. 12
On to B5, for which the figures for the “ELISA Signal (OD490)” value in assay [4], in assay [5] and in assay [6] were 0.381 OD490, 0.388 OD490 and 0.383 OD490, respectively.
